Drawing on US20250387474A1, this text covers Kd for three substances.

In experiment [1] the target is human IL-13Rα1 (human) (UniProt P78552). As to the kind of experiment: SPR, construct captured on anti-human IgG (Fc) antibody on a CM5 chip, human receptor as analyte. In general terms: Surface plasmon resonance follows binding to a sensor surface in real time, without labels.
Experiment [2] concerns the target human IL-13Rα2 (human) (UniProt Q14627). The description is as above.
For experiment [3], the target named is human IL-13Rα1 (human) (UniProt P78552). As to the kind of experiment: SPR on immobilized ligands with receptors as flow analytes using MCK, top trace marked 1000 nM.
Experiment [4] addresses human IL-13Rα2 (human) (UniProt Q14627). As to the kind of experiment: SPR on immobilized ligands with receptors as flow analytes using MCK, top trace marked 250 nM.
Experiment [5] deals with T1, human IL-2R beta (CD122) (human) (UniProt P14784).
T1 sequence (looked up): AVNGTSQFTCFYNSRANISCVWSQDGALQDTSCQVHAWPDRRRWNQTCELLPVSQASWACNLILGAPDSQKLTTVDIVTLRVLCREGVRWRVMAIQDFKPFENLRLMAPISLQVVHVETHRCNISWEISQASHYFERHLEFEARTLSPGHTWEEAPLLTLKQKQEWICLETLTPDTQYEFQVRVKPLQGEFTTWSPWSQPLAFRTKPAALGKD
As to the kind of experiment: BLI (Octet). A general note: Biolayer interferometry detects binding as a change in optical thickness at a sensor tip.

Chain of human IL-13Rα2 (human) (Q14627 27-343 limits assumed): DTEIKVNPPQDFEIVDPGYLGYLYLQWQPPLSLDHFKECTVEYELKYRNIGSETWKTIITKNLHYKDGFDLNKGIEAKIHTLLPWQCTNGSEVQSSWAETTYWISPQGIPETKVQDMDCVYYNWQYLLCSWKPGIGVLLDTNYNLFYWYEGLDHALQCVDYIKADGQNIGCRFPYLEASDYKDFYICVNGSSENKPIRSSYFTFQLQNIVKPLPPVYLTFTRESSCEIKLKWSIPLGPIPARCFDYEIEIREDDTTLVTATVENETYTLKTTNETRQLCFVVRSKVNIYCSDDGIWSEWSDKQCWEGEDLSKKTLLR
Chain of human IL-13Rα1 (human) (P78552 22-343 limits assumed): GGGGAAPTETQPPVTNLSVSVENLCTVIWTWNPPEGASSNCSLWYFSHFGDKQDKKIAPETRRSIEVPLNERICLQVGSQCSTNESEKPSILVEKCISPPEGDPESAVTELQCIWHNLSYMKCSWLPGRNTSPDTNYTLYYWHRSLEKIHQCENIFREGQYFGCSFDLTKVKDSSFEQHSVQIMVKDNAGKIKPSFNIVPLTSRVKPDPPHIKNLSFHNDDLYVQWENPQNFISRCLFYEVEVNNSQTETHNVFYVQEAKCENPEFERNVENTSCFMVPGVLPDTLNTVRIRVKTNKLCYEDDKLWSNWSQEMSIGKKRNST

Consider “Fc-IL13 (wild-type IL-13 with Fc tag, comparator; format not stated) (Fc fusion)”, for which the Kd (as a rule, the free concentration of one partner at which half of the binding sites on the other are occupied at equilibrium, for simple one-to-one binding) was determined as 237 nM with human IL-13Rα1 (human) [1], 0.6 nM in the experiment with human IL-13Rα2 (human) [2], 202 nM in the experiment with human IL-13Rα1 (human) [3] and 0.69 nM with human IL-13Rα2 (human) [4].
For MDNA11 (MDNA109FEAA-Albumin), in experiment [5], the Kd was 11 nM.
Substance VivoTag800-MDNA11 returned an equilibrium dissociation constant (Kd) in experiment [5] of 7 nM.
